T1: human HPF1 R239A (human, UniProt Q9NWY4 1-346, R239A)
T1 sequence: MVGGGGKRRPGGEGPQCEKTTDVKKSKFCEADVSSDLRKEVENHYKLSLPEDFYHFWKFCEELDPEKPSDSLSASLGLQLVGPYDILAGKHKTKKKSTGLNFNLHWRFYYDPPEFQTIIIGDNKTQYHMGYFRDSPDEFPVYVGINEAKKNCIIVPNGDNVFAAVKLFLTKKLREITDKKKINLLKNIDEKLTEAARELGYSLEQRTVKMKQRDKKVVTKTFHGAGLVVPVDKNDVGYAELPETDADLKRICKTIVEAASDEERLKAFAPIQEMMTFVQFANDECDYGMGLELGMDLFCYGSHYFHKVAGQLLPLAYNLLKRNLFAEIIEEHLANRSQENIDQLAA

T2: human HPF1 F280A (human, UniProt Q9NWY4 1-346, F280A)
T2 sequence: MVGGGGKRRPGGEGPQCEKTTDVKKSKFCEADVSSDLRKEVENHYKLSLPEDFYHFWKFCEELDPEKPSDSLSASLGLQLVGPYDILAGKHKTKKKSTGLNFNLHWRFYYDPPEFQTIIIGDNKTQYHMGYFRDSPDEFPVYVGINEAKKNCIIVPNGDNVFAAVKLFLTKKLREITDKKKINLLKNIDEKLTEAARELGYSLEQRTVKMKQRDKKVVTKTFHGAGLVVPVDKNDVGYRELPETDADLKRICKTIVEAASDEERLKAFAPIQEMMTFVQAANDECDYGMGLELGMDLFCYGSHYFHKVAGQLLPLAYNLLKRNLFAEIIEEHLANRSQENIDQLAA

T3: human HPF1 K307S (human, UniProt Q9NWY4 1-346, K307S)
T3 sequence: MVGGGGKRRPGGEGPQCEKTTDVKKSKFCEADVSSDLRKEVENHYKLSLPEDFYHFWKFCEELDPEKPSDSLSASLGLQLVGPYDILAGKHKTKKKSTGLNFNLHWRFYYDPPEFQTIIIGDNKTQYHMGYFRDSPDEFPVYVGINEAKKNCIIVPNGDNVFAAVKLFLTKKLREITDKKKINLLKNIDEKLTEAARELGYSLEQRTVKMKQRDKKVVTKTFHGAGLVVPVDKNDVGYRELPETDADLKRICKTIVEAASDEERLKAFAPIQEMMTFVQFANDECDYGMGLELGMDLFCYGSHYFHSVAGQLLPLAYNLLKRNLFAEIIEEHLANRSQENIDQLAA

T4: human HPF1 F139S (human, UniProt Q9NWY4 1-346, F139S)
T4 sequence: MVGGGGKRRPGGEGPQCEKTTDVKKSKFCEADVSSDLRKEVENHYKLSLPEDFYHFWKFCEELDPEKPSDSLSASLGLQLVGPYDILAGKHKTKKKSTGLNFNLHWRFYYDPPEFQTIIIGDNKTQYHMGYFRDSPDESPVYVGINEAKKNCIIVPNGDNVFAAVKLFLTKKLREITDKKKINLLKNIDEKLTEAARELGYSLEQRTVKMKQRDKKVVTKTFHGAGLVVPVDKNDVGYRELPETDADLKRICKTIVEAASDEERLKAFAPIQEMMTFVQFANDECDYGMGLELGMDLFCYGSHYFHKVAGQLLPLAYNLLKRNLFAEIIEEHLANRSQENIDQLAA

T5: human HPF1 E138K (human, UniProt Q9NWY4 1-346, E138K)
T5 sequence: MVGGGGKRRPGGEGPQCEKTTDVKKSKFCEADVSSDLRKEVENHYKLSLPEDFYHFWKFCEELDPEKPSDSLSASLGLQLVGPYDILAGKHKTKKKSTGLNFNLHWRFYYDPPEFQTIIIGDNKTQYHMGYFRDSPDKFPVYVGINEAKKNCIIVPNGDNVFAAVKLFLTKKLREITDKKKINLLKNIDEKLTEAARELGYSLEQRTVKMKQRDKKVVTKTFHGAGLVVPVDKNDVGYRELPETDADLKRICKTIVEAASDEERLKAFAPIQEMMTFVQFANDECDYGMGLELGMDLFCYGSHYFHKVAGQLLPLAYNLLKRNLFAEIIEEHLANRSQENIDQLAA

T6: human HPF1 K216E (human, UniProt Q9NWY4 1-346, K216E)
T6 sequence: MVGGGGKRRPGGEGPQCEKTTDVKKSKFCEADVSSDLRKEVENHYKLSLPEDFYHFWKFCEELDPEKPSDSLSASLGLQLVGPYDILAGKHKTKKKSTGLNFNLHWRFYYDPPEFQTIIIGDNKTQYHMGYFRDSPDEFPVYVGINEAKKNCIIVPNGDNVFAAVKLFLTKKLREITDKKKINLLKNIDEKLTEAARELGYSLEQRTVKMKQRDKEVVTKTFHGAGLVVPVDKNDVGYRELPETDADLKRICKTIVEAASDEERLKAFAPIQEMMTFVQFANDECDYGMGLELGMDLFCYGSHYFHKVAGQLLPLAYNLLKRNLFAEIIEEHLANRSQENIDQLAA

B1: human PARP1-CAT ΔHD (661-678-GSGSGSGG-787-1014) (domain or fragment)
chain: TKSKLPKPVQDLIKMIFDGSGSGSGGKDPIDVNYEKLKTDIKVVDRDSEEAEIIRKYVKNTHATTHNAYDLEVIDIFKIEREGECQRYKPFKQLHNRRLLWHGSRTTNFAGILSQGLRIAPPEAPVTGYMFGKGIYFADMVSKSANYCHTSQGDPIGLILLGEVALGNMYELKHASHISKLPKGKHSVKGLGKTTPDPSANISLDGVDVPLGTGISSGVNDTSLLYNEYIVYDIAQVNLKYLLKLKFNFKTSLW

Assays:
[1] = biological target: B1; test: ITC; replicate 2
PARP1 D756A = PARP1 D756A (human, UniProt P09874 1-1014, D756A); test: ITC; in the presence of DNA
human HPF1 R239A [2] = biological target: T1, human HPF1 R239A; test: ITC; replicate 1
human HPF1 F280A [3] = biological target: T2, human HPF1 F280A; test: ITC; replicate 1
human HPF1 K307S [4] = biological target: T3, human HPF1 K307S; test: ITC; replicate 1
human HPF1 R239A [5] = biological target: T1, human HPF1 R239A; test: ITC; replicate 2
human HPF1 F280A [6] = biological target: T2, human HPF1 F280A; test: ITC; replicate 2
human HPF1 K307S [7] = biological target: T3, human HPF1 K307S; test: ITC; replicate 2
human HPF1 F139S [8] = biological target: T4, human HPF1 F139S; test: ITC; replicate 1
human HPF1 E138K [9] = biological target: T5, human HPF1 E138K; test: ITC; replicate 1
human HPF1 F139S [10] = biological target: T4, human HPF1 F139S; test: ITC; replicate 2
human HPF1 K216E = biological target: T6, human HPF1 K216E; test: ITC; replicate 2
human HPF1 E138K [11] = biological target: T5, human HPF1 E138K; test: ITC; replicate 2

Row | Binder | Ka [1] | Ka (PARP1 D756A) | Ka (human HPF1 R239A [2]) | Ka (human HPF1 F280A [3]) | Ka (human HPF1 K307S [4]) | Ka (human HPF1 R239A [5]) | Ka (human HPF1 F280A [6]) | Ka (human HPF1 K307S [7]) | Ka (human HPF1 F139S [8]) | Ka (human HPF1 E138K [9]) | Ka (human HPF1 F139S [10]) | Ka (human HPF1 K216E) | Ka (human HPF1 E138K [11])
1 | human HPF1 (histone PARylation factor 1), wild-type (natural protein) MVGGGGKRRPGGEGPQCEKTTDVKKSKFCEADVSSDLRKEVENHYKLSLPEDFYHFWKFCEELDPEKPSDSLSASLGLQLVGPYDILAGKHKTKKKSTGLNFNLHWRFYYDPPEFQTIIIGDNKTQYHMGYFRDSPDEFPVYVGINEAKKNCIIVPNGDNVFAAVKLFLTKKLREITDKKKINLLKNIDEKLTEAARELGYSLEQRTVKMKQRDKKVVTKTFHGAGLVVPVDKNDVGYRELPETDADLKRICKTIVEAASDEERLKAFAPIQEMMTFVQFANDECDYGMGLELGMDLFCYGSHYFHKVAGQLLPLAYNLLKRNLFAEIIEEHLANRSQENIDQLAA | 642000 M⁻¹ | 333000 M⁻¹ | – | – | – | – | – | – | – | – | – | – | –
2 | B1 | – | – | 432000 M⁻¹ | 147000 M⁻¹ | 95700 M⁻¹ | 402000 M⁻¹ | 212000 M⁻¹ | 123000 M⁻¹ | 400000 M⁻¹ | 617000 M⁻¹ | 440000 M⁻¹ | 725000 M⁻¹ | 583000 M⁻¹
